Test results taken from paper PMC9223271 (Nature Communications, 2022).

Molecular target: T1, SARS-CoV-2 RBD protein (recombinant, WT) (SARS-CoV-2 wild type (Wuhan-Hu-1 …, UniProt P0DTC2))
T1 construct: also called WT RBD
Assay: SPR
Conditions: both partners purified

B1: S2E12 (antibody, V domains shown)
VH: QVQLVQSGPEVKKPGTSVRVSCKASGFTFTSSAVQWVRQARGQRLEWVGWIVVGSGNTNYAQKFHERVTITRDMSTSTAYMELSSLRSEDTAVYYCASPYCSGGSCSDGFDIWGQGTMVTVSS
VL: DIVLTQTPGTLSLSPGERATLSCRASQSVSSSYLAWYQQKPGQAPRLLIYGASSRATGIPDRFSGSGSGTDFTLTISRLEPEDFAVYYCQQYVGLTGWTFGQGTKVEIK
notes: source: generated by the authors
binding result: binds

B2: ZCB11 (human IgG1 monoclonal antibody) (antibody, V domains shown)
VH: EVQLVQSGPEVKKPGTSVKVACKASGFTFITPVSMQWVRQARGQRLEWLGWIVLASGNTDYAQKFQERVTIIRDMSTSTAYMELSRLRTEDTAVYYCAAPSCSRTICSDGFDIWGQGTMVTVSS
VL: EIVLTQSPGTLSLSPGERATLSCRASQSVSSSYLAWFQQKPGQAPRLLIFAASSRAIGIPARFSGSGSGTDFTLTISRLEPEDFAVYYCQQYSSSPWTFGQGTKVEIK
notes: also called bNAb ZCB11
Kd: 0.0575 nM
